The text below walks through data of patent US20110256153A1 (IMMUNOGEN, published 2011).

In assay [1] the target is T1, human CD37 (human, UniProt P11049 1-278).
T1 construct: Tetraspanin antigen; Expressed on 300-19 cells transfected with pSRa-CD37 (entire CDS) or endogenous on WSU-DLCL-2, BJAB and Ramos lymphoma cells; also called CD37 antigen; human CD37 wildtype
T1 sequence: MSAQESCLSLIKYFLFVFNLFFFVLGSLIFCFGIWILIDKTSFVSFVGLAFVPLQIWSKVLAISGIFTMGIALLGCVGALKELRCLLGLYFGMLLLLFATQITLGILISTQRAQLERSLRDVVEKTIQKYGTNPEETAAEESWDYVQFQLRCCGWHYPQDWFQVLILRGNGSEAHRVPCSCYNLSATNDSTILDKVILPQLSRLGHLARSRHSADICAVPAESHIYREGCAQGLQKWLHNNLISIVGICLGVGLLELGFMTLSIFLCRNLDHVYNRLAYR
The assay can be described thus: flow cytometry titration on BJAB cells; apparent Kd. Put shortly: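 BJAB cells were incubated 3 h with titrated antibody in RPMI-1640 containing 2% goat serum, then 1 h with FITC anti-mouse or anti-human IgG, fixed in 1% formaldehyde and read by flow cytometry. Apparent Kd was derived by non-linear regression of the dose-response curves.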
(In flow cytometry, cells or beads pass a laser one at a time.)

Assay [2] has as its target T1, human CD37. The assay can be described thus: flow cytometry titration on Ramos cells; apparent Kd. The protocol: (§1) Binding specificity was tested by flow cytometry using purified antibodies. […] All murine antibodies were incubated for 3 h with either CD37-expressing 300-19 cells or the non-transfected 300-19 cells (1×10⁵ cells per sample) in 100 μL FACS buffer (RPMI-1640 medium supplemented with 2% normal goat serum). Then, the cells were pelleted, washed, and incubated for 1 h with 100 μL of FITC-conjugated goat anti-mouse IgG-antibody (Jackson Laboratory, 6 μg/mL in FACS buffer). The cells were pelleted again, washed with FACS buffer and resuspended in 200 μL of PBS containing 1% formaldehyde. Samples were acquired using a FACSCalibur flow cytometer with the HTS multiwell sampler or a FACS array flow cytometer and analyzed using CellQuest Pro (all from BD Biosciences, San Diego, US).
The chimeric antibodies chCD37-3 and chCD37-12 were assayed for their binding affinity to Ramos cells in comparison to their murine counterparts. Flow cytometry binding assays using Ramos cells and muCD37-3, chCD37-3, muCD37-12 and chCD37-12 antibodies were carried out and analyzed as described in Example 2 using secondary FITC-conjugated goat-anti-murine and -anti-human antibodies. FIG. 9A depicts the dose-response curves generated by non-linear regression for each antibody. The value for the apparent dissociation constant (Kd) of each antibody was calculated using GraphPad Prism v4 (GraphPad software, San Diego, Calif.).

In the next assay the target is T2, hCD37-M1 (human/murine chimera, UniProt P11049 1-281).
T2 construct: stably expressed on 300-19 cells; also called hCD37-M1 variant
T2 chain: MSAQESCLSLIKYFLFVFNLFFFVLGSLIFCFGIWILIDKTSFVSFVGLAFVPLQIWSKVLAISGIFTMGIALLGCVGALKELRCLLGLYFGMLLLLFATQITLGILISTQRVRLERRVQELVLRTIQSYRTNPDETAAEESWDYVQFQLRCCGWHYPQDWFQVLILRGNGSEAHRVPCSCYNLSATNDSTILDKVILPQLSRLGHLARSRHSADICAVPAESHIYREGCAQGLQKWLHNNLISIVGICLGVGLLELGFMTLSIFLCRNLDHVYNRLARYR
The assay can be described thus: flow cytometry, 300-19 cells expressing hCD37-M1, 1.5 µg/mL antibody. The protocol: as §1
(§2) Binding of various CD37 antibodies to cells expressing human CD37 wildtype and variants was analyzed by flow cytometry using 1.5 μg/mL of each antibody. The isolated antibodies of this invention were compared to commercially available CD37 antibody WR17, as well as the TRU-016 SMIP. […] Likewise, all antibodies tested bound the hCD37-M3 variant (FIG. 18B). In contrast, the isolated antibodies of this invention bound the hCD37-M1 variant, while TRU-016 and WR17 were unable to bind hCD37-M1 variant (FIG. 19A). The CD37-50 and CD37-51 antibodies and TRU-016 were also able to bind the hCD37-M45 variant. […] In contrast, the CD37-3, CD37-12, CD37-38, CD37-56 and CD37-57 antibodies require at least one of the AA residues in the hCD37-M45 variant that were changed to the corresponding murine AA residues for binding to the CD37 antigen.

The next assay deals with T3, hCD37-M45 (human/murine chimera, UniProt P11049 1-281).
T3 construct: stably expressed on 300-19 cells; also called hCD37-M45 variant
T3 chain: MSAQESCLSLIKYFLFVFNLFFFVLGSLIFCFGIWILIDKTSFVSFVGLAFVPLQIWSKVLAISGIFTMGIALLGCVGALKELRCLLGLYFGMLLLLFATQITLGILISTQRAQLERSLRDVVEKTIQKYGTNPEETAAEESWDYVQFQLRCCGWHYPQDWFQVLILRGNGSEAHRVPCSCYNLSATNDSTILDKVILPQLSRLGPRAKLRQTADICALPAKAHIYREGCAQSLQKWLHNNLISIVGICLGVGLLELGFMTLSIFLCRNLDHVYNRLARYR
The assay can be described thus: flow cytometry, 300-19 cells expressing hCD37-M45. The protocol: as §1, §2

B1: muCD37-3 (antibody, mouse IgG2a, kappa)
heavy: QVQVKESGPGLVAPSQSLSITCTVSGFSLTTSGVSWVRQPPGKGLEWLGVIWGDGSTNYHSALKSRLSIKKDHSKSQVFLKLNSLQTDDTATYYCAKGGYSLAHWGQGTLVTVSAAKTTAPSVYPLAPVCGDTTGSSVTLGCLVKGYFPEPVTLTWNSGSLSSGVHTFPAVLQSDLYTLSSSVTVTSSTWPSQSITCNVAHPASSTKVDKKIEPRGPTIKPCPPCKCPAPNLLGGPSVFIFPPKIKDVLMISLSPIVTCVVVDVSEDDPDVQISWFVNNVEVHTAQTQTHREDYNSTLRVVSALPIQHQDWMSGKEFKCKVNNKDLPAPIERTISKPKGSVRAPQVYVLPPPEEEMTKKQVTLTCMVTDFMPEDIYVEWTNNGKTELNYKNTEPVLDSDGSYFMYSKLRVEKKNWVERNSYSCSVVHEGLHNHHTTKSFSRTPGK
light: DIQMTQSPASLSVSVGETVTITCRASENIRSNLAWYQQKQGKSPQLLVNVATNLADGVPSRFSGSGSGTQYSLKINSLQSEDFGTYYCQHYWGTTWTFGGGTKLEIKRADAAPTVSIFPPSSEQLTSGGASVVCFLNNFYPKDINVKWKIDGSERQNGVLNSWTDQDSKDSTYSMSSTLTLTKDEYERHNSYTCEATHKTSTSPIVKSFNRNEC
notes: Murine hybridoma antibody; also called murine CD37-3 antibody; muCD37-3-PE
Turning to B1, the Kd in the assay with human CD37 [1] is 0.2 nM; with human CD37 [2], 0.4 nM. The binding result in the assay with hCD37-M1 is reported as “binds”; with hCD37-M45, “no binding (tested: 1.5 µg/mL)”.
